Source: patent publication US7282356B2, “D-aminoacylase mutants” (Daicel Chemical Industries, Ltd., priority 2002, dated 2007)

How the values were obtained:
[1] = Production of D-tryptophan from high concentrations of N-acetyl-DL-tryptophan using culture medium of recombinant E. coli; type: cell-based, E. coli HB101
Protocol: Cells of E. coli HB101 strain were transformed with the plasmid pSL-AD10 expressing the mutant D-aminoacylase 3AD-0089 (containing the amino acid substitution of A154V/M347A/R374F) obtained in Example 18. The transformant was inoculated to a liquid LB medium, and cultured at 30° C. overnight. Then, the E. coli was inoculated to a culture medium (2x YT) and incubated at 30° C. for 18 hours. N-acetyl-D-tryptophan was hydrolyzed using the culture medium solution of the E. coli.
400 mL of a reaction solution containing the culture medium solution of the E. coli and 15% N-acetyl-DL-tryptophan was incubated at 30° C. for 24 hours while being stirred. E. coli HB101 strain containing the wild type […] was used as a control. While with the wild type the yield was about 4%, with the recombinant E. coli containing pSL-AD10 the yield was 90% or higher (FIG. 1).
The hydrolysis was carried out in the presence of 20% N-acetyl-DL-tryptophan by the same method as described in Example 26. The yield was 90% or higher with the recombinant E. coli having the plasmid pSL-AD10 that contains the DNA encoding the mutant D-aminoacylase 3AD-0089 (containing the amino acid substitution of A154V/M347A/R374F). The optical purity of tryptophan produced was analyzed by the procedure described below. […] The elution was detected with the optical density at 280 nm. […]

[2] = D-aminoacylase activity assay (20 mM N-acetyl-D-tryptophan, TNBS method); type: biochemical
Protocol: The enzyme reaction can be achieved by incubating 1.0 ml of a reaction solution containing 20 mM N-acetyl-D-tryptophan (Sigma), 50 mM Tris-hydrochloride buffer (pH 7.5), and an enzyme solution at 30° C. for 10 minutes. Then, the reaction is stopped by adding 0.5 ml of a stop solution containing TCA (comprising 0.11 M trichloroacetic acid, 0.22 M sodium acetate, and 0.33 M acetic acid). The amount of D-tryptophan produced can be determined by TNBS method (Biosci. Biotech. Biochem., 58, 24 (1994)).
For example, 0.25 ml of 100 mM Na2B4O7 is added to 0.25 ml of the stop solution, 10 μl of 110 mM TNBS (trinitrobenzenesulfonic acid) solution is added to the mixed solution, and immediately thereafter, the resulting mixture is stirred. After the mixture is allowed to stand for five minutes, 1 ml of 100 mM NaHPO4 containing 1.5 mM Na2SO3 is added to the mixture to stop the color reaction. Then, the absorbance of the solution is determined at 420 nm. One unit of the enzyme activity is defined as the amount of enzyme that catalyzes the production of 1 μmol of D-tryptophan at 30° C. for one minute.

[3] = Conversion of 5% or 10% N-acetyl-DL-tryptophan by E. coli transformant cells; type: cell-based, E. coli HB101; settings: 25° C.
Protocol: Cells of E. coli HB101 strain were transformed with the expression plasmids for the three mutant D-aminoacylases AD-0103, AD-1064, and AD-1927 obtained in Example 8, whose inhibition was impaired. The E. coli cells were inoculated in liquid LB media, and cultured at 30° C. overnight. Then, the transformants were inoculated in 2x YT (2% Bacto tryptone, 1% Bacto-yeast extract, 1.0% sodium chloride, pH 7.2) media and incubated at 30° C. for 18 hours. The E. coli cells were harvested. The bacterial cells were used to hydrolyze N-acetyl-D-tryptophan.
Cells of the respective E. coli transformants prepared from 5 ml of liquid culture media were incubated in 10 ml of reaction solutions which comprised 300 mM Tris-hydrochloride buffer (pH 8.0) containing 5% or 10% N-acetyl-DL-tryptophan at 25° C. while being stirred. An E. coli HB101 strain containing the plasmid pSL-ADD6 with the wild-type D-aminoacylase was used as a control. In assays using 5% N-acetyl-DL-tryptophan as the substrate, the yield was about 50% with the wild type, whereas the yield was about 100% with any one of the four mutants. In assays using 10% N-acetyl-DL-tryptophan as the substrate, the yield was about 15% with the wild type, whereas the yield was about 25% with each of the mutants AD-0103 and AD-1089; the yield was about 40% with the mutant AD-1064, and the yield was about 60% with the mutant AD-1927. […]

[4] = Activity of the cloned, purified enzyme to N-acetyl-L-tryptophan; type: biochemical; settings: cloned enzyme purified from E. coli
Text: The present inventors focused on the fact that the D-aminoacylase derived from Alcaligenes denitrificans subsp. xylosoxydans MI-4 strain has an exceedingly high specific activity (404 U/mg) to N-acetyl-D-methionine. According to references, the D-aminoacylase had only 20 U/mg or lower activity to N-acetyl-D-tryptophan. The present inventors cloned the gene encoding the enzyme into E. coli, purified the cloned enzyme, and measured its specific activity. […] Thus, this enzyme can be useful to produce D-tryptophan from N-acetyl-DL-tryptophan.

[5] = Reaction of third generation mutants with 7% N-acetyl-DL-tryptophan in microtiter plate; type: cell-based, E. coli HB101; settings: 25° C., 8 hours
Protocol: With a conventional method, recombinant plasmid DNAs were purified from total 10 strains of E. coli JM109 transformant obtained in Example 16. Cells of E. coli HB101 strain were transformed with the recombinant plasmid DNAs to prepare transformants. Each colony grown on a culture plate was inoculated with a toothpick to a well of a microtiter plate which contained 150 μl of LB culture medium containing 50 μg/ml ampicillin and 0.02 mM IPTG, and then the microtiter plate was covered with Breathable Sealing Membrane (Nalgene). The microtiter plate was incubated at 37° C. for 18 hours while being shaken. The reaction was carried out using total 200 μl of a reaction solution containing 100 μl of culture medium solution, 300 mM Tris-hydrochloride buffer (pH 8.0), 7% N-acetyl-DL-tryptophan, and distilled water in each well of a microtiter plate at 25° C. for 8 hours while being shaken. When all of the N-acetyl-D-tryptophan contained in substrate is converted to D-tryptophan, the yield is taken as 100%. While the yield was about 70% with the wild type, the yield was roughly 100% with a third generation mutant obtained in […]. Thus, the competitive inhibition was confirmed to be impaired in the third generation mutants.

[6] = according to references; cited from earlier work

B1: wild-type: D-aminoacylase derived from Alcaligenes denitrificans subsp. xylosoxydans MI-4, SEQ ID NO: 1 (protein)
chain: MSQSDSQPFDLLLAGGTLIDGSNTPGRRADLGVRGDRIAAIGDLSDAAAHTRVDVSGLVVAPGFIDSHTHDDNYLLRRRDMTPKISQGVTTVVTGNCGISLAPLAHANPPAPLDLLDEGGSYRFERFADYLDALRATPAAVNAACMVGHSTLRAAVMPDLQRAATDEEIAAMRDLAEEAMASGAIGISTGAFYPPAARATTEEIIEVCRPLSAHGGIYATHMRDEGEHIVAALEETFRIGRELDVPVVISHHKVMGQPNFGRSRETLPLIEAAMARQDVSLDAYPYVAGSTMLKQDRVLLAGRTIITWCKPFPELSGRDLDEVAAERGKSKYDVVPELQPAGAIYFMMDEPDVQRILAFGPTMIGSDGLPHDERPHPRLWGTFPRVLGHYARDLGLFPLETAVWKMTGLTAARFGLAGRGQLQAGYFADLVVFDPATVADTATFEHPTERAAGIHSVYVNGAPVWQEQAFTGQHAGRVLARTAA
modifications: Alcaligenes denitrificans subsp. xylosoxydans MI-4
In the case of B1, the yield ([1]; 15% N-acetyl-DL-tryptophan, 30° C., 24 hours, culture medium solution) is reported as “about 4%”, the D-tryptophan produced ([1]; from 150 g/l N-acetyl-DL-tryptophan (75 g/l N-acetyl-D-tryptophan), FIG. 1) is reported as “about 2.5 g/l” and the “D-aminoacylase activity of cell extract” value ([2]; cell extract of E. coli JM109 transformant) is reported as 34 U/mg. The “specific activity of the purified enzyme” value ([2]; purified enzyme, N-acetyl-D-tryptophan) was 528 U/mg, the yield ([3]; 5% N-acetyl-DL-tryptophan) was “about 50%” and the yield ([3]; 10% N-acetyl-DL-tryptophan) was “about 15%”. For the same molecule, the “activity to N-acetyl-L-tryptophan” value [4] was “inactive”, the yield [5] was “about 70%” and the “activity to N-acetyl-D-tryptophan” value [6] was ≤ 20 U/mg.
